In paper PMC3883574:

Target: double-domain activation-associated secreted protein (ASP) (Cooperia oncophora (endogenous in adult worms))
Experiment: reducing against non-reducing SDS-PAGE, bands identified by MALDI-TOF MS

Q: With “double-domain activation-associated secreted protein (ASP) (natural protein)” as the substance, how does the stoichiometry N read?
A: Its stoichiometry N is 2.
